Read-outs that look alike come from different tables or passages of the source.
Key:
[1] = system: BenO-containing human cytomegalovirus (CMV) promoter; settings: 24 h, GFP normalized by RFP; p<0.05 (t-test)
Description: CHO cells were transfected with a plasmid with the BenO-containing human cytomegalovirus (CMV) promoter controlling the expression of GFP as well as an empty vector (− BenM) or a vector expressing BenM (+ BenM). Total GFP expression was measured after 24 h, and normalized by total RFP expression. Average and standard deviation are based on three biological replicates. *; p<0.05 (t-test).
For testing the reporter promoter design with other promoter backbones AND in another eukaryotes, Chinese hamster ovary cells was transformed using the human cytomegalovirus promoter backbone (CMV) instead of the CYC1 promoter backbone used in yeast.
Just as in the case with the yeast design using CYC1 promoter as a backbone, the present inventors put the binding site (benO) for the prokaryotic transcriptional activator BenM 6 bp upstream of the TATA box the CMV promoter and scored reporter gene activity (GFP fluorescence) in the presence and absence of the transcriptional activator BenM.

BenM [2] = biological target: T1, BenM (Acinetobacter baylyi, UniProt O68014); experiment: Screening 17 yeast strains with BenO at different positions upstream of TATA1 of 209 bp CYC1p; format: cell-based; set-up: expressed in transfected cells; promoters TDH3p, TEF1p, RNR2p or REV1p; settings: BenM from REV1p, 1.4 mM CCM, 24 h
T1 sequence (O68014 whole entry, looked up): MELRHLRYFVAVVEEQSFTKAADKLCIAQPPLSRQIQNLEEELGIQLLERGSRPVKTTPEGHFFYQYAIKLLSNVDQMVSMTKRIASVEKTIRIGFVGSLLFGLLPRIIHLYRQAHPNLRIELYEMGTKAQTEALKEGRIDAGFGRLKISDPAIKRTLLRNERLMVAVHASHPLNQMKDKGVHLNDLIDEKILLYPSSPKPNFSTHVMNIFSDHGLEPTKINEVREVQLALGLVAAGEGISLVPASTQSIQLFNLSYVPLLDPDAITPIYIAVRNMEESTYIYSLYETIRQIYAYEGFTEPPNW
Description: FIG. 14. Screening 17 yeast strains expressing BenM from the REV1p in combination with CYC1p reporter promoter of 209 bp with BenO placed at different positions upstream of TATA1. The fold induction (mean±s.d.) was calculated by dividing mean fluorescence intensity (MFI) in medium with 1.4 mM CCM by the MFI in control medium as measured by flow cytometry after 24 h of growth for three biological replicates.
In addition to this, the present inventors also tested 17 different positions for positioning of the BenM binding site (benO).

[3] = system: CYC1 promoter with BenM operator (BenO); settings: BenM from TEF1 promoter
Description: Cells grown for 24 h in control (mineral medium, pH 4.5) or inducing medium (mineral medium pH 4.5+1.4 mM CCM, 1.4 mM protocatechuic acid, 10 mM malonic acid, 0.2 mM naringenin, or 50 mM L-arginine) were diluted into PBS to arrest cell growth. Cells were then analyzed by flow cytometry using a Fortessa flow cytometer (Becton Dickinson) with a blue laser (488 nm), for validation of single strains. For each strain 10,000 single-cell events were recorded. Events were analyzed using FlowJo software (TreeStar Inc.). The fluorescence arithmetic mean of the gated cell population was calculated, and the fold-change determined by dividing the mean fluorescence of the induced (ON) state with the mean fluorescence of the control (OFF) state. For flow cytometry for CCM and naringenin producing cells we tested mean fluorescence intensities from 10,000 cells pr. strain following 72 and 48 h, respectively. The data represent the average of three (n=3) biological replicates and error bars correspond to the standard deviation between these measurements.
Initially, BenO was introduced into the 491 bp CYC1 promoter immediately upstream of one of the two TATA boxes—TATA-1β (designated 491 bp_CYC1p_BenO_T1) or TATA-2α (designated 491 bp_CYC1p_BenO_T2), or upstream of both (designated 491 bp_CYC1p_BenO_T1/T2)(FIG. 2a). Outputs from these engineered promoters were compared by flow cytometry to expression from the native CYC1p (491 bp_CYC1p) using GFP as the reporter (FIG. 1a and FIG. 2a).

209 bp_CYC1p_T1 promoter = experiment: LTTR-mediated activation of GFP expression from 209 bp_CYC1p_T1 reporter promoter in yeast, without ligand; format: cell-based, Saccharomyces cerevisiae; settings: LTTR expressed from strong TDH3 promoter
Description: (§1) Events were analyzed using FlowJo software (TreeStar Inc.).
The genetic device developed in this study represents to the best of our knowledge the first example of transplanting a prokaryotic transcriptional activator into a eukaryotic chassis and successfully using it to activate gene expression without the need for modifying the protein beyond codon optimization. […] To test the generality of the biosensor design for onboarding other small-molecule binding transcriptional activators as biosensors in yeast we selected four other candidates from the LTTR family; FdeR from Herbaspirillum seropedicae, PcaQ from Sinorhizobium meliloti, ArgP from Escherichia coli, and MdcR from Klebsiella pneumonia, with co-inducers naringenin, protocatechuic acid (PCA), L-arginine, and malonic acid, respectively. In this proof-of-principle study we selected the four candidates based on a minimal set of information, including knowledge about operator sequences, experimental evidence for ligand-inducible control of target operons, and their mode-of-action within native chassis (ie. activation, FIG. 1). Furthermore all of these metabolites can passively diffuse across the yeast plasma membrane, with the exception of malonic acid, which requires the expression of the dicarboxylic acid transporter MAE1 from Schizosaccharomyces pombe. […]

BenM [4] = biological target: T1, BenM; experiment: CCM-induced GFP expression in yeast strains combining BenM expression cassettes and CYC1p reporter promoter variants (flow cytometry); format: cell-based, Saccharomyces cerevisiae; set-up: expressed in transfected cells; host or cells: Saccharomyces cerevisiae CEN.PK113-5A, chromosomal integration; promoters TDH3p, TEF1p, RNR2p or REV1p; settings: 30° C. vs 37° C.
Description: Strains, chemicals and media. Saccharomyces cerevisiae CEN.PK102-5B (MATa ura3-52 his3Δ1 leu2-3/112 MAL2-8^c SUC2), CEN.PK113-5A (MATa, trp1 his3Δ1 leu2-3/112 MAL2-8^c SUC2) and CEN.PK113-7D (wild type, MATa MAL2-8^c SUC2) strains were obtained from Peter Kotter (Johann Wolfgang Goethe-University Frankfurt, Germany). In principal any other yeast strains may be used, such as one obtained from public repository EuroScarf. EasyClone plasmids used in this work are described in Jensen, N. B. et al. EasyClone: method for iterative chromosomal integration of multiple genes in Saccharomyces cerevisiae. FEMS Yeast Res. 14, 238-48 (2014). Escherichia coli strain DH5a was used as a host for cloning and plasmid propagation. The chemicals and Pfu TURBO DNA polymerase were commercially obtained (Sigma-Aldrich and Agilent Technologies Inc., respectively). All acids used were >97% in purity. S. cerevisiae cells were grown at 30° C. in synthetic complete medium as well as drop-out media and agar plates were prepared using pre-mixed drop-out powders (Sigma-Aldrich). Mineral medium was freshly prepared as described previously. For all media containing diacids, 1.4 mM of the individual diacids were dissolved in mineral medium and pH adjusted to 4.5 before sterile filtration. […]
as §1

B1: BenM: CCM-inducible LysR-type transcriptional activator from Acinetobacter sp ADP1, codon-optimized for yeast (protein, UniProt O68014 1-304, looked up)
HTH-type transcriptional …: MELRHLRYFVAVVEEQSFTKAADKLCIAQPPLSRQIQNLEEELGIQLLERGSRPVKTTPEGHFFYQYAIKLLSNVDQMVSMTKRIASVEKTIRIGFVGSLLFGLLPRIIHLYRQAHPNLRIELYEMGTKAQTEALKEGRIDAGFGRLKISDPAIKRTLLRNERLMVAVHASHPLNQMKDKGVHLNDLIDEKILLYPSSPKPNFSTHVMNIFSDHGLEPTKINEVREVQLALGLVAAGEGISLVPASTQSIQLFNLSYVPLLDPDAITPIYIAVRNMEESTYIYSLYETIRQIYAYEGFTEPPNW
modifications: codon-optimized for yeast
Question: What does the source list for B1?
Answer: reporter (GFP) expression in CHO with vs without BenM [1]: activates reporter expression; response with BenO at 17 different positions upstream of TATA box (BenM [2]): Only position 6 upstream of the TATA box gave a significant response; induction of expression compared to promoter activity without co-expression of BenM ([3]; 491 bp_CYC1p_BenO_T1/T2, no CCM): 5 fold; induction of expression compared to promoter activity without co-expression of BenM ([3]; 491 bp_CYC1p_BenO_T1, no CCM): 20 fold; reduction in expression upon co-expression of BenM ([3]; 491 bp_CYC1p_BenO_T2, no CCM): 30%; effect of BenM on expression of native CYC1p without BenO ([3]; native 491 bp CYC1p): did not increase expression; activation of GFP expression compared to yeast cells without expression of an LTTR (209 bp_CYC1p_T1 promoter): 8.1 ×; dynamic range in output by temperature (BenM [4]): higher dynamic range in output at 30 °C compared to 37 °C

Reference: patent US20190185865A1, “USE OF PROKARYOTIC TRANSCRIPTIONAL ACTIVATORS AS METABOLITE BIOSENSORS IN EUKARYOTIC CELLS” (Danmarks Tekniske Universitet, priority 2016, published 2019)
